Measured values: paper PMC6520106

Experiments:
[1] = biological target: BicD2-CTD (C-terminal cargo binding domain of human BicD2, residues 715-804) (human); test: ITC
[2] = biological target: BicD2-CTD (C-terminal cargo binding domain of human BicD2, residues 715-804) (human); test: SEC-MALS
Rab6 (Homo sapiens) = Rab6 (Homo sapiens) (UniProt P20340); details: cited from earlier work
Chain of UniProt P20340 (P20340 2-208): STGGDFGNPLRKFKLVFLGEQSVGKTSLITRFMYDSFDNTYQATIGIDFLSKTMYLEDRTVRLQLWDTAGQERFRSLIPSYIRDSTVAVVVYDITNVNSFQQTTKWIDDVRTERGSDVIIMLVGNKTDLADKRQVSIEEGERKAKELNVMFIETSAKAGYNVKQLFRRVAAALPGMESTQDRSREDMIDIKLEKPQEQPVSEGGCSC

Substance	Kd [1]	stoichiometry N (binder per target (2:2 complex)) [2]	dH [1]	also measured
Rab6^GTP (full-length human Rab6a Q72L, GTP-locked) (from UniProt P20340 1-208) (natural protein)	12.6 µM	1	–	–
Nup358-RBD2/RanGTP complex (from UniProt P62826 1-216)	3.8 µM	–	-12.8 kcal/mol	–
BicD2-CTD (C-terminal cargo binding domain of human BicD2, residues 715-804) (domain or fragment)	–	–	–	stoichiometry N [2]: 2
BicD2 (from UniProt Q8TD16)	–	–	–	Kd (Rab6 (Homo sapiens)): 1000 nM
Rab6^GTPmin (human Rab6a Q72L, residues 13-174) (from UniProt P20340 13-174) (domain or fragment)	12 µM	–	–	–
Nup358-RBD2 (residues 2006-2443 of human Nup358) (domain or fragment)	0.5 µM	1	-14.9 kcal/mol	–
